Assay results published in patent publication US20250269025A1 (AVENCELL THERAPEUTICS, published 2025).
No end group written: not given here.

Key:
human CD123-Fc [1] = biological target: T1, human CD123-Fc (human, UniProt P26951 19-305, limits assumed); assay: SPR, Biacore X100, human CD123-Fc on CM5 chip, 1:1 model
T1 construct: Coupled to a CM5 sensor chip; also called soluble recombinant CD123; not shown: Fc part
T1 sequence (looked up): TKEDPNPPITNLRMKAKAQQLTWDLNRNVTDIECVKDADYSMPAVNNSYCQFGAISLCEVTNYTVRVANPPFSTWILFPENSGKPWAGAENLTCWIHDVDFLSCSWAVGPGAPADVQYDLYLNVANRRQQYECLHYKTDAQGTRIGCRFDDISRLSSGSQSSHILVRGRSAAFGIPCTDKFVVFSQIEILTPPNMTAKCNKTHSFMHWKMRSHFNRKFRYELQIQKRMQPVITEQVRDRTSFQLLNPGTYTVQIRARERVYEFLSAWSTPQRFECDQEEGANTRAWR
Method: (§1) Binding of different variants of the targeting module according to the invention was analyzed by SPR measurements using human CD123-Fc coupled to a CM5 sensor chip on a Biacore X100 device (FIG. 2). Targeting modules were purified monomer except for the targeting module according to SEQ ID No. 8. […] For data fitting and KD calculation a 1:1 binding model was applied.

[2] = biological target: T2, CD123 on CD123 positive AML cells (Oci-AML3, Molm-13, MV4-11, primary AML cells) (human, UniProt P26951 19-378); assay: flow cytometry on Oci-AML3 cells, anti-His-PE detection. Half-maximal binding from a four-parameter fit of gMFI. Unit taken from the concentration axis [M]. The curve has no upper plateau in the range shown
T2 construct: whole, on cells; Endogenous CD123 on human AML cell lines; also called target antigen CD123
Method: Cellular binding of CD123-binding targeting modules (TM) was tested on CD123 positive target cell lines Oci-AML3 and Molm-13: A) SEQ ID No. 5 to Oci-AML3, B) SEQ ID No. 9 to Oci-AML3, C) SEQ ID No. 4 to Molm-13 and D) SEQ ID No. 6 to Molm-13. The affinity of TMs was analyzed by flow cytometry. The TMs were titrated on an AML cell lines and then detected by a mouse anti-His-tag antibody conjugated to phycoerythrin.
Different concentrations of R-TM123 were incubated with cells, washed and quantified. A dose-response curve was obtained when the geometric mean fluorescence (MFI) was plotted against the TM concentration.

[3] = biological target: T2, CD123 on CD123 positive AML cells …; assay: cellular binding assay per table caption, Oci-AML3 cells; Oci-AML3 cells
human CD123-Fc [4] = biological target: T1, human CD123-Fc; assay: SPR, Biacore X100, human CD123-Fc on CM5 chip, 1:1 model; KD CD123 (first number of the cell)
Method: as §1

[5] = biological target: T3, La epitope 5B9 (SEQ ID No. 28) fused to human Fc domain (human, also: fused to human Fc domain, order, isotype, linker not given here); assay: SPR, Biacore X100, La epitope 5B9-human Fc on CM5 chip; KD 5B9 (second number of the cell)
T3 construct: Coupled to a CM5 sensor chip; not shown: human Fc domain
T3 chain: KPLPEVTDEY
Method: (§2) Furthermore, binding of different variants of the targeting module according to the invention was analyzed using the La epitope 5B9 (SEQ ID No. 28) fused to human Fc domain which was coupled to a CM5 sensor chip on a Biacore X100 device (FIG. 3). The targeting modules were purified monomers. The targeting modules were concentrated between 2.47 to 200 nM and measured in technical duplicates. For data fitting and KD calculation a two-state-reaction binding model was applied.

[6] = biological target: T2, CD123 on CD123 positive AML cells …; assay: cellular binding assay per table caption, Molm-13 cells; Molm-13 cells
[7] = biological target: T3, La epitope 5B9 (SEQ ID No. 28) fused to …; assay: SPR, Biacore X100, La epitope 5B9-human Fc on CM5 chip
Method: as §2

human CD123-Fc [8] = biological target: T1, human CD123-Fc; assay: SPR, Biacore X100, human CD123-Fc on CM5 chip, 1:1 model; TM not purified monomer
Method: as §1

B1: targeting module according to SEQ ID No. 9 (bispecific antibody)
chain: EVQLVQSGAEVKKPGASVKMSCKASGYTFTDYYMKWVKQAPGQGLEWIGDIIPSNGATFYNQKFKGRATLTVDRSTSTAYMELSSLRSEDTAVYYCTRSHLLRASWFAYWGQGTLVTVSSASGGGGSGGGGSGGGGSDFVMTQSPDSLAVSLGERATINCESSQSLLNTGNQKNYLTWYLQKPGQPPKLLIYWASTRESGVPDRFSGSGSGTDFTLTISSVQAEDVAVYYCQNDYSYPYTFGGGTKLEIKAAARGDIVMTQSPDSLAVSLGERATINCKSSQSLLNSRTPKNYLAWYQQKPGQPPKLLIYWASTRKSGVPDRFSGSGSGTDFTLTISSLQAEDVAVYYCKQSYNLLTFGGGTKVEIKGGGGSGGGGSGASAAGGGGSGGGGSQVQLVQSGAEVKKPGASVKVSCKASGYTFTHYYIYWVRQAPGQGLEWMGGVNPSNGGTHFNEKFKSRVTMTRDTSISTAYMELSRLRSDDTAVYYCARSEYDYGLGFAYWGQGTLVTVSSGGGGSHHHHHHHH
notes: also called huCD123_4 + 5B9-VLVH
- Kd (human CD123-Fc [1]): 162 pM
- Kd [2]: 6770 pM

B2: targeting module according to SEQ ID No. 2 (reference) (bispecific antibody)
chain: EVQLQQSGPELVKPGASVKMSCKASGYTFTDYYMKWVKQSHGKSLEWIGDIIPSNGATFYNQKFKGKATLTVDRSSSTAYMHLNSLTSEDSAVYYCTRSHLLRASWFAYWGQGTLVTVSAASGGGGSGGGGSGGGGSDFVMTQSPSSLTVTAGEKVTMSCKSSQSLLNSGNQKNYLTWYLQKPGQPPKLLIYWASTRESGVPDRFTGSGSGTDFTLTISSVQAEDLAVYYCQNDYSYPYTFGGGTKLEIKAAARGQVQLVQSGAEVKKPGASVKVSCKASGYTFTHYYIYWVRQAPGQGLEWMGGVNPSNGGTHFNEKFKSRVTMTRDTSISTAYMELSRLRSDDTAVYYCARSEYDYGLGFAYWGQGTLVTVSSGGGGSGGGGSGGGGSDIVMTQSPDSLAVSLGERATINCKSSQSLLNSRTPKNYLAWYQQKPGQPPKLLIYWASTRKSGVPDRFSGSGSGTDFTLTISSLQAEDVAVYYCKQSYNLLTFGGGTKVEIKGPEQKLISEEDLNSAVDHHHHHH
notes: also called muCD123 + 5B9-VH-VL
- EC50 [3]: 3.2 pM
- Kd (human CD123-Fc [4]): 227 pM
- Kd [5]: 17000 pM
- EC50 [6]: 2.3 pM

B3: targeting module according to SEQ ID No. 3 (bispecific antibody)
chain: GQVQLVQSGAEVKKPGSSVKVSCKASGYTFTDYYIHWVRQAPGQGLEWMGDIIPSNGATFYNQRFKGRVTITADESTSTAYMELSSLRSEDTAVYYCTRSHLLRASWFAYWGQGTLVTVSSASGGGGSGGGGSGGGGSDIVMTQTPLSLSVTPGQPASISCRSSQSLLNSGNQKNYLTWYLQKPGQSPQLLIYWASTRFIGVPDRFSGSGSGTDFTLKISRVEAEDVGVYYCQNDYSYPYTFGQGTKLEIKAAARGDIVMTQSPDSLAVSLGERATINCKSSQSLLNSRTPKNYLAWYQQKPGQPPKLLIYWASTRKSGVPDRFSGSGSGTDFTLTISSLQAEDVAVYYCKQSYNLLTFGGGTKVEIKGGGGSGGGGSGASAAGGGGSGGGGSQVQLVQSGAEVKKPGASVKVSCKASGYTFTHYYIYWVRQAPGQGLEWMGGVNPSNGGTHFNEKFKSRVTMTRDTSISTAYMELSRLRSDDTAVYYCARSEYDYGLGFAYWGQGTLVTVSSGGGGSHHHHHHHH
notes: also called huCD123_1 + 5B9-VL-VH
- Kd [7]: 2000 pM
- EC50 [3]: 23000 pM

B4: targeting module according to SEQ ID No. 8 (bispecific antibody)
chain: GQVQLVQSGAEVKKPGASVKMSCKASGYTFTDYYMKWVKQAPGQGLEWIGDIIPSNGATFYNQKFKGRATLTVDKSTSTAYMELSSLRSEDTAVYYCTRSHLLRASWFAYWGQGTLVTVSSASGGGGSGGGGSGGGGSDFVMTQSPDSLAVSLGERATMNCKSSQSLLNSGNQKNYLTWYLQKPGQPPKLLIYWASTRESGVPDRFSGSGSGTDFTLTISSVQAEDVAVYYCQNDYSYPYTFGGGTKLEIKAAARGDIVMTQSPDSLAVSLGERATINCKSSQSLLNSRTPKNYLAWYQQKPGQPPKLLIYWASTRKSGVPDRFSGSGSGTDFTLTISSLQAEDVAVYYCKQSYNLLTFGGGTKVEIKGGGGSGGGGSGASAAGGGGSGGGGSQVQLVQSGAEVKKPGASVKVSCKASGYTFTHYYIYWVRQAPGQGLEWMGGVNPSNGGTHFNEKFKSRVTMTRDTSISTAYMELSRLRSDDTAVYYCARSEYDYGLGFAYWGQGTLVTVSSGGGGSHHHHHHHH
notes: also called huCD123_3 + 5B9-VLVH
- Kd (human CD123-Fc [8]): 131 pM
